MFI data for four substances are collected here from patent US20250313627A1.

The target of experiment [1] is human ROR1 (Receptor Tyrosine Kinase-Like Orphan Receptor 1) on the cell surface (human) (UniProt Q01973). Put plainly: flow cytometry, B16-F10 cells expressing human ROR1 (high density). On the technique in general: A flow cytometer gives signals particle by particle.
For experiment [2] the target is unchanged. The description is as above. The source holds these as a separate data set.
Experiment [3] has the same target. The experiment is described as above. This is another data set of the same source.
For experiment [4] the target is unchanged. The experiment is described as above. The source holds these as a separate data set.
Experiment [5] has the same target. The description is as above. The source holds these as a separate data set.
Experiment [6] has the same target. The experiment is described as above. This is another data set of the same source.
Experiment [7] shares this target. Put plainly: flow cytometry, LS174T cells expressing human ROR1 (low density).
For experiment [8] the target is unchanged. The experiment is described as above. The source holds these as a separate data set.

Chain of human ROR1 (Receptor Tyrosine Kinase-Like Orphan Receptor 1) on the cell surface (human) (Q01973 30-937): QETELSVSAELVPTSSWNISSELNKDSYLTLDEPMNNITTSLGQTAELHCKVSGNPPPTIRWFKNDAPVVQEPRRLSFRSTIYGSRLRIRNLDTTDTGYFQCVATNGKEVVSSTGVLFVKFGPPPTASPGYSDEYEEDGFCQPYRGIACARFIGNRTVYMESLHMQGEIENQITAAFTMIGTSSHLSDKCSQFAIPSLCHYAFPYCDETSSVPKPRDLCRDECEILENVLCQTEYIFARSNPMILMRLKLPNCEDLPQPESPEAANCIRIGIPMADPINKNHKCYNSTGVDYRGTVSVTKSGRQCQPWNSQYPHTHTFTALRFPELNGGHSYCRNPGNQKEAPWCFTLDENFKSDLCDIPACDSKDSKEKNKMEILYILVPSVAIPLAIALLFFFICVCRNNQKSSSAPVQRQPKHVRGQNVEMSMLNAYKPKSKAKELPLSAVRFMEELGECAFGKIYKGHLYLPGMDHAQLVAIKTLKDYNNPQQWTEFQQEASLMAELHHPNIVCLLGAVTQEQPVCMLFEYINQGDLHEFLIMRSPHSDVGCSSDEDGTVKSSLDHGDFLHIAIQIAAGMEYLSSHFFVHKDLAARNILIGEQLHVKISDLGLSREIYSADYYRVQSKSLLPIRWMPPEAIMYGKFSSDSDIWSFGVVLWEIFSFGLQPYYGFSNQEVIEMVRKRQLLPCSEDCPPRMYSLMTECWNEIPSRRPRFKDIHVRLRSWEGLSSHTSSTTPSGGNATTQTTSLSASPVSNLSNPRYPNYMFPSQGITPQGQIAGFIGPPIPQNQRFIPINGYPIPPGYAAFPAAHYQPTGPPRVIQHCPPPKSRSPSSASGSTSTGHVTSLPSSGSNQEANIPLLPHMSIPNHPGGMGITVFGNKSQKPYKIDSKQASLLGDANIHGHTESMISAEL

In the case of “Hen Egg Lysozyme (HEL)-specific antibody”, the MFI in experiment [1] turned out to be 1140; in experiment [2] it was 3.86; in experiment [3] it was 13.3; in experiment [4] it was 6.85; in experiment [5] it was 9.86; in experiment [6], 12.1.
For the substance Human IgG1 (antibody), the MFI in experiment [7] amounted to 316; in experiment [8] it was 30.8.
As for “goat anti human IgG-Fc specific PE secondary antibody, alone”, the MFI is 125 in experiment [1]; 3.01 in experiment [2]; 9.92 in experiment [3]; 45.3 in experiment [7]; 4.45 in experiment [4]; 5.67 in experiment [5]. For the same substance, the values for the MFI in experiment [8] and in experiment [6] were 22.6 and 15.5, respectively.
For “mIgG-PE (PE labeled mouse IgG Ab) (antibody)”, the MFI in experiment [1] was determined as 94.6; in experiment [2], 2.08; in experiment [3], 6.53; in experiment [7], 54; in experiment [4] it was 4.31; in experiment [5] it was 6.1. The MFI in experiment [8] came out at 23.2; in experiment [6], 4.36.
